The results in this text go back to paper PMC6749330, “Novel Peptide NIRF Optical Surgical Navigation Agents for HNSCC” (Molecules, 2019).

For one data set, the system named is Cal 27 cells. Briefly: Fluorescence microscopy assay on Cal 27 cells. Particulars: 10 μM, 1 h and 24 h incubations, 37 °C, 800 nm emission. It is filed as cell-based, Human. As for the experimental part: Fluorescence microscopy assays. Cal 27 cells were seeded at 70,000/well in duplicate on eight-well chamber slides and allowed to attach overnight. Cell culture medium was replaced with 200 μL medium containing 10 μM peptides. Cells were incubated at 37 °C for 1–24 h followed by washing four times with 300 μL of HEPES buffer (25 mM HEPES 150 mM NaCl at pH 7.4) and once with the buffer containing 1 μg/mL DAPI. The chamber slide scaffold was then removed. Each chamber was then covered by a drop of aqua-poly mount and a coverslip, and sealed with clear nail polish. Cells were imaged with an Olympus IX81 microscope using an 800 nm emission filter set for IRDye800 conjugates and 461 nm for DAPI. Images were captured at 800 nm (red) for 5 s and at 461 nm (blue) with the automatic settings, at 200×. […]
the measured fluorescence.
The ratio of uptake at 2 h drops to about 13. Note:
Figure 2 data are normalized to fHN-1-IR800 that was run adjacent to each of the hybrid-peptides. f-HN1- […]
vertical scale magnitude of 4IphfHN17-IR800 between Figure 2 at ~4.5 and Figure S3 at ~13.
Figure S4.Fluorescence microscopy of 1 h and 24 h incubations of 10 µM IR800-labeled hybrid-peptides in […]
Cal 27 cells. […] HN1-IR800, HNJ-
Figure S5. Blood clearance of hybrid-peptide molecules from normal mice as described in Materials and Methods. […]

A short description of the next data set: In vitro serum stability. Particulars: nu/nu, mouse.
Data set [1] deals with FBS (fetal bovine serum) proteins. Briefly: FBS protein binding assay. The following applies: 25 μM in 100% FBS, room temperature 30 s, Amicon 10 K cutoff, 12,000 g 15 min, fluorescence, p < 0.05.
Method: FBS protein binding assay. […] The concentration was chosen as the maximum expected in blood from an intravenous imaging dose of 40 nmol in a 20 g mouse, with a blood factor of 0.078 [40, 41]. Solutions (300 μL) were then loaded into an Amicon unit (0.5 mL, 10 K cutoff) and centrifuged at 12,000× g for 15 min [28]. Samples from the filtrate (50 μL), residual (5 μL), and original solution (5 μL) were loaded in duplicate into black wall 96-well plates containing 50 (for filtrate) or 95 (for residual and original) μL of PBS with 0.2% BSA. For an additional wash, 300 μL of PBS was then added into the Amicon unit. The unit was centrifuged as above. The same amounts of each of the parts were loaded into wells. Fluorescence intensity for each fraction was calculated by fraction volume × fluorescent unit/μL. Single factor ANOVA was used to analyze the data with p < 0.05 considered significant.
A short description of data set [2]: HPLC Rt as measure of relative lipophilicity. Particulars: chromatographic, C18 RP (XBridge 150 × 4.6 mm, 3.5 μm), water/ACN 0.1% TFA, 20 to 50% ACN up to 10 min, 50 to 70% from 10 to 30 min, 1 mL/min, NIRF detection.

Where a SMILES comes first, the peptide text is derived from it. The star is where a group is joined. IRDye800CW = CC1(C)C(/C=C/C2=C(Oc3ccc(S(=O)(=O)O)cc3)C(=C/C=C3/N(CCCCS(=O)(=O)O)c4ccc(S(=O)(=O)O)cc4C3(C)C)/CCC2)=[N+](CCCCCC(=O)*)c2ccc(S(=O)(=O)[O-])cc21

`CC1(C)C(/C=C/C2=C(Oc3ccc(S(=O)(=O)O)cc3)C(=C/C=C3/N(CCCCS(=O)(=O)O)c4ccc(S(=O)(=O)[O-])cc4C3(C)C)/CCC2)=[N+](CCCCCC(=O)O)c2ccc(S(=O)(=O)O)cc21` [IR800-COOH]: in the data set on Cal 27 cells, the “Uptake in Cal 27 cells by fluorescence microscopy” value is reported as “not observably taken up”.
Regarding `CC[C@H](C)[C@H](NC(=O)[C@H](CC(N)=O)NC(=O)[C@H](CC(C)C)NC(=O)[C@@H]1CCCN1C(=O)[C@H](CO)NC(=O)[C@@H](N)[C@@H](C)O)C(=O)N[C@@H](Cc1c[nH]cn1)C(=O)N[C@@H](CC(N)=O)C(=O)NCC(=O)N[C@@H](CCC(N)=O)C(=O)N[C@@H](CCCCNC(=O)CCCCC[N+]1=C(/C=C/C2=C(Oc3ccc(S(=O)(=O)O)cc3)C(=C/C=C3/N(CCCCS(=O)(=O)O)c4ccc(S(=O)(=O)O)cc4C3(C)C)/CCC2)C(C)(C)c2cc(S(=O)(=O)[O-])ccc21)C(=O)N[C@@H](CC(C)C)C(N)=O` [HN1-IR800] (H-TSPLNIHNGQK(IRDye800CW)L-NH2), in the data set “In vitro serum stability”, the half-life (usually how long it takes for the measured level to halve) at 6.4 μM was 50.4 min. The “peptide bound to FBS proteins” value in data set [1] is listed as about 52%. Also, in data set [2], the “HPLC Rt (relative lipophilicity)” value came to 7.31 min.
